According to patent US20250084155A1 (University of Texas, published 2025):
Substitutions are numbered along the chain they refer to. Values belong to the binder of their own block, whether it stands above or below them.

Experiments:
[1] = biological target: T1, HSP70 (human HSP70; the antigen of the binning, humanization and variant binding assays) (human, UniProt P0DMV8 1-641, limits assumed); test: BLI, anti-human Fc capture, antigen 100 nM
T1 construct: also called hu HSP70
Description: Binding assays were performed as follows. Antibody variants were immobilized using anti-human Fc onto the surface of a series of biosensors at […]. Antigen, at 100 nM, was passed over the surface to generate a binding response. Binding data for the antibody:antigen interactions were collected at 25° C. on the biosensors. In Table 14, X=610 represents captured antigen value (nM) at the beginning of the dissociation phase (measured at 610 seconds after the biosensor was initially contacted with antigen) and X=1495 represents captured antigen value (nM) at the end of the dissociation phase (measured at 1495 seconds after the biosensor was initially contacted with antigen). In Table 14, antibodies with an X=610 value greater than 0.2 and a % dissociation less than 10% are shown in bold.

[2] = biological target: T1, HSP70 (human HSP70; the antigen of the …); test: BLI, antibody on sensor
Description: Humanized variants were characterized for binding using biolayer interferometry (BLI). Chimeric antibodies including the murine 77A antigen binding region and human Fe regions were also tested. Antibodies and reagents were diluted out onto microwell plates and loaded into the instrument. Diluted antibodies were first immobilized onto dip-and-read sensors, and then measurements for baselines were acquired. Subsequently, the sensors were dipped into wells containing the antigen in solution, or buffer alone. The change in number of molecules bound to the sensor was quantified by measurement of the shift in the interference pattern of light during each step of the protocol. Mathematical modeling was performed based on those values and the concentrations of reagents used in the assay and used to calculate kinetics values.

T1 sequence (P0DMV8 whole entry, change not shown): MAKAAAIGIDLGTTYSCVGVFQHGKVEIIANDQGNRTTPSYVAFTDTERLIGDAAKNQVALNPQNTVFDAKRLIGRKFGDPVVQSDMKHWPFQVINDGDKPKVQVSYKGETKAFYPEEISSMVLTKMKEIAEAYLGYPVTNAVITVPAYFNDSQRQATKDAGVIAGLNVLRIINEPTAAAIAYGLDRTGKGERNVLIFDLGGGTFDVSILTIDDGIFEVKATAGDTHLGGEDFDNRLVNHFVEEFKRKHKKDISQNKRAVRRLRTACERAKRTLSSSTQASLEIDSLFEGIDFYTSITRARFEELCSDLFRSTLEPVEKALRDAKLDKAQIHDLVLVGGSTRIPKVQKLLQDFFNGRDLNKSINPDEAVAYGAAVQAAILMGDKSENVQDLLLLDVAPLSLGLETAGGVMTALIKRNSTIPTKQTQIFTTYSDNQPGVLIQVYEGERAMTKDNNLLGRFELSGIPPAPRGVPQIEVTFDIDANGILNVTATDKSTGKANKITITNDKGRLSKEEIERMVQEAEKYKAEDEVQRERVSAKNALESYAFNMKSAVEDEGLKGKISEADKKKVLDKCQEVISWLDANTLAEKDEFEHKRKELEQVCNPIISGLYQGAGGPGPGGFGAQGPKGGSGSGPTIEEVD

B1: h77A-1.62 (antibody, V domains shown)
VH: QIQLVQSGAEVKKPGASVKVSCKASGYTFTNYGMNWVRQAPGQGLEWMGWINTYTGEPTYADDFKGRFTFTTDTSTTTGYMELRSLRSDDTAVYFCARYDHAMDYWGQGTLVTVSS
VL: EIVLTQSPDSLAVSLGERATIKCKSSQSLLNSGTRKNYLAWYQQKAGQSPKLLIYWTSTRESGVPDRFSASGSGTDFTLTIDSLQAEDVAVYYCKQSYTLYTFGGGTKVEIK
notes: captured by anti-human Fc
% Diss [1]: 12.3%

B3: h77A-4 (antibody, V domains shown)
VH: B1 VH with T77S, G79A
VL: DIQMTQSPSSLSASVGDRVTITCKSSQSLLNSGTRKNYLAWYQQKPGKVPKLLIYWTSTRESGVPSRFSGSGSGTDFTLTISSLQPEDVATYYCKQSYTLYTFGGGTKLEIK
Kd [2]: 7.66 nM
koff [2]: 0.000287 s⁻¹
kon [2]: 37400 M⁻¹ s⁻¹

B5: h77A-1.92 (antibody, V domains shown)
VH: B1 VH with T28S, A61G, T77S, G79A
VL: B1 VL with A12T, K22N, L30F, Q44K, A70G, T99N
notes: captured by anti-human Fc
% Diss [1]: 32.4%

B8: h77A-1.85 (antibody, V domains shown)
VH: B1 VH with Q3H, T28I, T77S, G79A, A97V
VL: B1 VL with K22N, A40S, Q44K, A46S, A70G
notes: captured by anti-human Fc
% Diss [1]: 16.1%

B10: h77A-1.66 (antibody, V domains shown)
VH: B1 VH with T28I, P58S, T77S, G79V
VL: B1 VL with A70G
notes: captured by anti-human Fc
% Diss [1]: 32.1%

B11: h77A-1.79 (antibody, V domains shown)
VH: B1 VH with N31K, T59R, T77S, G79A, A102R
VL: B1 VL with K22N, A46P, A70G, T99N
notes: captured by anti-human Fc
% Diss [1]: -37.4%

B13: h77A-1.72 (antibody, V domains shown)
VH: B1 VH with A9P, T28I, P58T, G79V
VL: B1 VL with K22N, A70G
notes: captured by anti-human Fc
% Diss [1]: 31.5%

B14: h77A-1.86 (antibody, V domains shown)
VH: B1 VH with A9V, P58T, T77S, G79A
VL: B1 VL with K22N, L30F, Q44K, A70G, T80S, S83R
notes: captured by anti-human Fc
% Diss [1]: 14.1%

B15: h77A-1.81 (antibody, V domains shown)
VH: B1 VH with Q3H, T28I, T77S, G79V, A97V
VL: B1 VL with K22N, L30F, A70G
notes: captured by anti-human Fc
% Diss [1]: 30.1%

B17: h77A-1.80 (antibody, V domains shown)
VH: B1 VH with T59K, T77S, G79A, A102V
VL: B1 VL with K22N, A40S, A46P, L53I, A70G
notes: captured by anti-human Fc
% Diss [1]: -8.84%

B20: h77A-1.77 (antibody, V domains shown)
VH: B1 VH with A9P, T28I, A61G, T77S, G79A, A97G
VL: B1 VL with K22N, A70G, S83R
notes: captured by anti-human Fc
% Diss [1]: 32.5%

B21: h77A-1.76 (antibody, V domains shown)
VH: B1 VH with A9V, P58T, T77S, G79A, L83V
VL: B1 VL with K22N, L30F, A70G, T80S
notes: captured by anti-human Fc
% Diss [1]: 12.1%

B22: h77A-1.91 (antibody, V domains shown)
VH: B1 VH with Q3H, T28I, T77S, G79V, A97V
VL: B1 VL with A12S, K22N, L30F, A70G
notes: captured by anti-human Fc
% Diss [1]: 30.7%

B24: h77A-1.70 (antibody, V domains shown)
VH: B1 VH with A61S, T77S, G79A
VL: B1 VL with A12S, K22N, Q44K, A70G, S83R, V91L
notes: captured by anti-human Fc
% Diss [1]: 11.6%

B25: h77A-1.96 (antibody, V domains shown)
VH: B1 VH with T77S, G79A
VL: B1 VL with E1D, L4M, K22N, A46P, A70G, D82S, G105Q, V109L
notes: captured by anti-human Fc
% Diss [1]: 18.8%

B26: h77A-1.63 (antibody, V domains shown)
VH: B1 VH with T77S, G79A, T110S
VL: B1 VL with K22N, A40T, A46S, A70G, V91I
notes: captured by anti-human Fc
% Diss [1]: 14.2%

B27: h77A-1.64 (antibody, V domains shown)
VH: B1 VH with P58S, T77S, G79A
VL: B1 VL with K22N, Q44K, A70G, T80S, V91I
notes: captured by anti-human Fc
% Diss [1]: 21%

B28: h77A-1.65 (antibody, V domains shown)
VH: B1 VH with P58A, T77S, G79A, T110S
VL: B1 VL with K22N, A46S, A70G, V91I
notes: captured by anti-human Fc
% Diss [1]: 20.5%

The remaining lines, values ahead:

Kd [2]: 10 nM
koff [2]: 0.000488 s⁻¹
kon [2]: 48700 M⁻¹ s⁻¹
B2: h77A-7 (antibody, V domains shown)
VH: B1 VH with A16S, T72A, T74E, T77S, G79A, R84S, D89E
VL: DIVMTQSPDSLSVSLGERATINCKSSQSLLNSGTRKNYLAWYQQKPGQPPRLLIYWTSTRESGVPDRFSGSGSGTDFTLTINTLQAEDVAVYYCKQSYTLYTFGQGTKLEIK

Kd [2]: 6.87 nM
koff [2]: 0.000353 s⁻¹
kon [2]: 51400 M⁻¹ s⁻¹
B4: h77A-5 (antibody, V domains shown)
VH: B1 VH with T77S, G79A
VL: B2 VL with S12A, P49S, R51K, N82S, T83S, Q105G

Kd [2]: 4.9 nM
koff [2]: 0.000305 s⁻¹
kon [2]: 62300 M⁻¹ s⁻¹
B6: h77A-3 (antibody, V domains shown)
VH: B1 VH with T77S, G79A
VL: B2 VL with I2V, S12A, A19V, P49S, R51K, N82S, T83S

% Diss [1]: 27.2%
B7: h77A-1.97 (antibody, V domains shown)
VH: B1 VH with F70M, T77S, G79A
VL: B2 VL with S12A, P49S, R51K, N82S, T83S
notes: captured by anti-human Fc

Kd [2]: 7.1 nM
koff [2]: 0.000409 s⁻¹
kon [2]: 57700 M⁻¹ s⁻¹
B9: h77A-10 (antibody, V domains shown)
VH: B1 VH with A16S, T72A, T74E, T77S, G79A, R84S, D89E
VL: B2 VL with S12A, P49S, R51K, N82S, T83S, Q105G

% Diss [1]: 34.5%
B12: h77A-1.98 (antibody, V domains shown)
VH: B1 VH with F70M, T77S, G79A
VL: B1 VL with K22N, A70G
notes: captured by anti-human Fc

Kd [2]: 2.64 nM
koff [2]: 0.00014 s⁻¹
kon [2]: 53100 M⁻¹ s⁻¹
B16: h77A-6 (antibody, V domains shown)
VH: B1 VH with A16S, T72A, T74E, T77S, G79A, R84S, D89E
VL: B1 VL with K22N, A70G

Kd [2]: 4.23 nM
koff [2]: 0.000189 s⁻¹
kon [2]: 44600 M⁻¹ s⁻¹
B18: h77A-11 (antibody, V domains shown)
VH: QVQLQQSGPEVKKPGASVKISCKTSGYTFTNYGMNWVRQAPGQGLEWMGWINTYTGEPTYADDFKGRVTMTTDTSTSTAYLELTGLMSDDTAVYFCARYDHAMDYWGQGTTVTVSS
VL: B1 VL with K22N, A70G

Kd [2]: 8.89 nM
koff [2]: 0.000348 s⁻¹
kon [2]: 39200 M⁻¹ s⁻¹
B19: h77A-9 (antibody, V domains shown)
VH: B1 VH with A16S, T72A, T74E, T77S, G79A, R84S, D89E
VL: B3 VL

Kd [2]: 13.1 nM
koff [2]: 0.000545 s⁻¹
kon [2]: 41700 M⁻¹ s⁻¹
B23: h77A-21 (antibody, V domains shown)
VH: QIQLVQSGPEVKKPGESVKVSCKASGYTFTNYGMNWVRQAPGKGLEWMGWINTYTGEPTYADDFKGRVTITRDTSASTAYMELSSLRSEDTAVYFCARYDHAMDYWGQGTSVTVSS
VL: B1 VL with K22N, A70G

Kd [2]: 5.13 nM
koff [2]: 0.000308 s⁻¹
kon [2]: 59900 M⁻¹ s⁻¹
B29: h77A-2 (antibody, V domains shown)
VH: B1 VH with T77S, G79A
VL: B2 VL
